Results: the DeepSol protein solubility set

Test: soluble on expression in E. coli; label from the status in PepcDB or PDB records

Question: With “MLKGEDIGIDLGTASVLIYVRGKGIVLKEPSVIAVVQGKREVKAVGAEAYRMLGRTPGNIVAVRPLKDGVIADYALTEKMLLLFLQKVLSPMSRLFKGRVRIMVGVPSGVTDVERRAVVQAVSTLAHKVYLIEEPLAAAIGAGINVAEPTGSMVVDIGGGSTDIAVISLGGIVRSESLRIAGNEMDQAIILHIRQKYNLLIGERTAEELKIRLGRAKLLPGEEKEVAEVRGRDLLTGLPRTAEIPAEDIVEALQEPLSKIFQGVRNVLESTPPELASDIYERGILLTGGGALLRNLDVALQKATGVPVVVTENPIEAVALGTGKALEMLHVLEDTILSSDDVLRR” as the sequence, how does the “soluble on expression in E. coli” value read?
Answer: The value was “soluble”.

Question: For “MLKGFTPWPDELAETYRKNGCWAGETFGDLLRDRAAKYGDRIAITCGNTHWSYRELDTRADRLAAGFQKLGIQQKDRVVVQLPNIKEFFEVIFALFRLGALPVFALPSHRSSEITYFCEFAEAAAYIIPDAYSGFDYRSLARQVQSKLPTLKNIIVAGEAEEFLPLEDLHTEPVKLPEVKSSDVAFLQLSGGSTGLSKLIPRTHDDYIYSLKRSVEVCWLDHSTVYLAALPMAHNYPLSSPGVLGVLYAGGRVVLSPSPSPDDAFPLIEREKVTITALVPPLAMVWMDAASSRRDDLSSLQVLQVGGAKFSAEAARRVKAVFGCTLQQVFGMAEGLVNYTRLDDPEEIIVNTQGKPMSPYDESRVWDDHDRDVKPGETGHLLTRGPYTIRGYYKAEEHNAASFTEDGFYRTGDIVRLTRDGYIVVEGRAKDQINRGGEKVAAEEVENHLLAHPAVHDAAMVSMPDQFLGERSCVFIIPRDEAPKAAELKAFLRERGLAAYKIPDRVEFVESFPQTGVGKVSKKALREAISEKLLAGFKK”, which “soluble on expression in E. coli” value is on record?
Answer: The value was “soluble”.

Question: Which “soluble on expression in E. coli” value does the source give for “MLKIIQGALDTRELLKAYQEEACAKNFGAFCVFVGIVRKEDNIQGLSFDIYEALLKTWFEKWHHKAKDLGVVLKMAHSLGDVLIGQSSFLCVSMGKNRKNALELYENFIEDFKHNAPIWKYDLIHNKRIYAKERSHPLKGSGLLALEHHHHHH” here?
Answer: The value was “soluble”.

Question: For “MLKNLRIGKFEPEEEYVHFTYSIKNSEREKSKELIKEYRTLLQKAIDYLWSLTKIQVRKKNGNYKITLPKKKEVYKPLREELEKINHLASHYVDKAINDAFSILKSWRKRAIKGRASIEKPRVKKAYVRIKTTLRKVVGESVRITVRPHEYITFPWSKSWFSRRVRELELGEPIIKEEKVYLPFRYKLPWVTPVNFLAIDSNLYTLDAYDGEKFVTISLKQLYSLKYSMEVKRAKVQSFASKHTKRGRELMRKYSHRERNRVLDFVHKFVNALLDLYPMTFFAVEKLDKEGMFVDANESLSRKISRTVWRSIHRVLKYKAPLYGSFVKEVNPYLTSRSCPRCGFVSRKVGKTFECERCGFKLDRQLNASLNIYLKMCGFPHIREIARVWVGVIPLMGRRGMNVRDFGEAQGLRINIKYHEIPLEHHHHHH”, which “soluble on expression in E. coli” value is on record?
Answer: Its value is “not soluble”.

Question: For “MLKPEMIEKLNEQMNLELYSSLLYQQMSAWCSYHTFEGAAAFLRRHAQEEMTHMQRLFDYLTDTGNLPRINTVESPFAEYSSLDELFQETYKHEQLITQKINELAHAAMTNQDYPTFNFLQWYVSEQHEEEKLFKSIIDKLSLAGKSGEGLYFIDKELSTLDTQN”, which “soluble on expression in E. coli” value is on record?
Answer: The value was “soluble”.

Question: For “MLKQNTEREGRTIEQEDLKNLENEITEARENEDKYFSTFKGVRGQLIKECQEMKDEAFKIAYDGVMADSKHLENVKAGRLTEVQHEELAKEKGQEASEKALPKTPLGVAIMLKHYLRFIRVKPEAQGQKAPLYFFHPDHGVWLEDNEFLQDLISVIFPNATEKQAFDTLYKIARQSQLKEIQREYTVIGNQLYNYKTGQFEELTPDITVTRKIKTGYNKKAKEPTIKGWKPTAWLLELFDGDAELYNLAIQIIKASITGQSLQKIFWLFGEGGTGKGTFQQLLINLVGMDNVASLKITELAKSRFTTSILLGKSIVIGDDIQKDAVIKDTSDIFSLATGDIMTIEDKGKRPYSIRLNMTVVQSSNGLPRMNGDKSAIDRRFRILPFTKVFKGKPNKAIRNDYINRKEVLEYLLKLAIETPITDINPKASIEILEEHHKEMNPVIDFVSKFFTDELTSEFIPNSFVYHVWKGFLEYYDIKQIKSERGLHKEIKSNLPEGFEAGQKVIPVGRQLHTGFYPKEDLPLFASASYANGRASPEKRKKPKNERGYYNHWPTHKKQKKT”, which “soluble on expression in E. coli” value is on record?
Answer: The value was “soluble”.

Question: For “MLKRTPLFPVYARYGAKTIEFGGWEMPVQFSSIKEEHEAVRTRAGLFDVSHMGEIVVRGRGSLAFLQKLMTNDVAKLRPGRAQYTLMCYEDGGTVDDLLIYQKGENDYLLVVNAANTEKDFAWLSGHVEGDVELQDVSSETAQLALQGPAAERVLQRLTDFDLAALRPFSFADGVEVSGVKALVSRTGYTGEDGFELYCKAEDAAALWEAILAAGARDGVLPCGLGARDTLRFEACLPLYGQELSDSISPVEAGLGFAVKTEKEPPFIGQAVLKRQKEEGPPRRLVGIEMIDRGIPRHGYLVFADGEEVGFVTTGTQSPTLKKNIGLALVKADVAAIGREVEVDIRGKRLKANIVPIPFYRRAK”, which “soluble on expression in E. coli” value is on record?
Answer: Its value is “not soluble”.

Question: With “MLKVESISKDYREFKLREISFDVREGEHFIILGPSGSGKTVLLEIIAGIISPDRGRILLRGEDITGLPPEKRNFSYIPQNYALFPHMTVFDNIAFGLKLRKIPRKEVARKVREVAESLGIDHLLHRKPRTLSGGEQQRVAIARALVVKPELLLMDEPFANLDVQTKSKLIREMKRWRKEFGFTAIHVTHSFEEALSLGDRVGIMLRGRLVQVGDVRDVFSKPKSEEVARFLGFENIIEGVANGRILKVGDLRIELPREVWGKVRVGIRPEDITIFMEGVKTSARNVFKARVEGIEDLGALVKLTLNLGGIILRAFITRSSLIELGIREGEEVYASFKASAIHVFP” as the sequence, how does the “soluble on expression in E. coli” value read?
Answer: Its value is “soluble”.

Question: Which “soluble on expression in E. coli” value does the source give for “MLLGMSLEELTTVALRMGMPRFAGKQLAEWIYVRRATDFAEMTNISQANRQKLAEIYDLGRYPWSDVQCSVDGTKKYLFPVGEGRFVESVLIPEGDRATLCISSQVGCKMDCLFCMTGKQGWNGNLSAAEILNQIFSVDEAAELTNLVYMGMGEPLDNTDEVLRSIEALTEPWGMGWSPKRITVSTIGAKGLERFLAESRCHLAVSLHSPFPEERRKLMPGEKAFPIMQTLDRIRAYDFSGQRRVSFEYIVFDGLNDDMRHADELAAILRGIPCRINLIRFHKIPAVSLRSSDTARMEAFRKRMESHGFTCTIRASRGEDIFAACGMLSTSKAESSEEKSS” here?
Answer: The value was “not soluble”.

Question: For “MLLNLFNEMRAAKVPVSLRELLDLINALKQRVIFADIDEFYFLARTILVKDERHFDKFDRAFGAYFNGLEKLDDHLQALIPEDWLRKEFERSLSDEERAQIQSLGGLDKLIDEFKKRLEEQKERHAGGNKWIGTGGTSPFGSGGYNPEGIRVGDAGERKGKAVKVWDQREYKNLDDQVDLGTRNIKVALRRLRKFARQGAADELDIDGTIDHTARDAGLLNIQMRPERRNTIKLLLLFDIGGSMDSHVKVCEELFSACKTEFKHMEYFYFHNFIYETVWKNNLRRGSERTATQDLLHKYGADYKVIFIGDASMAPYEITQPGGSVEHWNEEAGYVWMQRFMAKFKKVIWINPYPKDAWDYTTSTHIVRDLIEQHMYPLTLQGLEDGMRYLA”, which “soluble on expression in E. coli” value is on record?
Answer: Its value is “not soluble”.

Question: Which “soluble on expression in E. coli” value does the source give for “MLLRILIADDEPLARERLRVLLQAQMQHLEVVAEAENGEQVLHDCQRLNPDLVLMDIAMPGIDGLETARYLRYLPACPAVVFCTAYGDHALSAFDVEAIDYLMKPVRAERLHAALKRVQTFVAGRLREPQTSCDETPRTHLCVRIRGGLRLIPLDQVRYLQADEKYVVICHEQGEDLIEESLKSLEKEFSDRFVRIHRNCLIARAELTELRRCSDGQVQAVLRNVVTPLAVSRRCVPLLCDQLRLSAVLTGRWLEHHHHHH” here?
Answer: The value was “not soluble”.

Question: Which “soluble on expression in E. coli” value does the source give for “MLLSIITVAFRNLEGIVKTHASLAHLAQAEDISFEWIVVDGGSNDGTREYLENLNGIYNLRFVSEPDNGIYDAMNKGIAMAQGKFALFLNSGDIFHQDAAYFVRKLKMQKDNVMITGDALLDFGDGHKIKRSAKPGWYIYHSLPASHQAIFFPVSGLKKWRYDLEYKVSSDYALAAKMYKAGYAFKKLNGLVSEFSMGGVSTTNNMELCADAKKVQRQILHVPGFWAELSWHLRQRTTSKTKALYNKS” here?
Answer: The value was “not soluble”.

Question: Which “soluble on expression in E. coli” value does the source give for “MLLSSCQSLFSPAYQSTLRPSDNPQTVEQVQKNDPRAQMGAREHPRIVASYGGEYRDAKTERLVARIAGALTAVSENPQQSYRITILNSPAINAFALPGGYLYVTRGLLALANDASEVAAVLSHEMGHVTANHGIERQRREEAEVIASRVVAEVLSSDLAGKQALARGKLRLAAFSRQQELQADVIGVRMLGEAGYDPYASPRFLDSMAAYARFSSADPENDQSLDFLSSHPNTPQRIELARRHARAFGQEGQVGDRGRDWFLDGIDGLLYGDSPQEGYVRGQTFLHGTLGIRFDVPEGFVIDNKVEAVLATGPGDMAIRFDGVADPKQTSLANYLTSGWVAGLLPETVKETQINGLEAATARASADKWDFDVTVIRVGQQIFRFLTAVPKGNTQLDSIANVLRTSFRKMTPQEIASLKPLRVRVVTVKPGETVATMAARMMGTERKLDMFRMINAMSATATLQPGQRVKIISELEHHHHHH” here?
Answer: The value was “not soluble”.

Question: Which “soluble on expression in E. coli” value does the source give for “MLMNNNNVYSLNNFDFLARSFARMQAEGRPVDIQAVTGNMDEEHRDWFCKRYALYCQQATQAKRLELEH” here?
Answer: The value was “not soluble”.

Question: For “MLNEREKILLKTLVERYIHEGQPVGSRSLAKFSGLDLSPATIRNVMTDLEEMGYVSSPHTSAGRMPTTLGYRFFVDTLLVVKSLDNEQITLLENQLHPNNPTHLMNVTSRLLSELTRFVGVVVTPKRMGGAVFRHIEFVALTEKRILLILVTPEGDVQNRIILTETAYSQSDLIEAGNFLNQHYAGCTLEEIRSGLQRELTQLRRDMTGLMNAAIEIGNDALQESSEAVVIAGEHRLFDVRDLSDNLSSLKSLFEMFERKSKLLQLMELSRQAHGVKIFIGGESDETMLEEVSVVTAPYEMEGKIVGTVGVIGPRRMAYERIIPIVDITAKLLSSNLS”, which “soluble on expression in E. coli” value is on record?
Answer: The value was “not soluble”.

Question: For “MLNETIQKEFQRKEIKYLIEADTFEQLQKEFKDYLTPDRFTHSSITNIYFDNPDFQLIKDSINHRHASEKIRMRTYDPKPTQKSQAFLEIKKKEYQGEQEIGYKYRLTSTPLSLCNYVQQGIIDNNIKQDDRANHELAILRERYKKLVPKMFIHYERFSLRGIENPKLRVTFDRNVIYRHENVNLTSGFNGYPLLKNNQIVMEIKVKNGLPAWMEKIFHKHQLIPQSFSKYTTAYLKAYGLTPEDIREEPTSIALEHHHHHH”, which “soluble on expression in E. coli” value is on record?
Answer: The value was “soluble”.

Question: Which “soluble on expression in E. coli” value does the source give for “MLNHIVMWKIKEDVEDKEKVKLGIKNGLEGLFGKIEELREIRVERFMESTSTHDVALFVKVDNEDTLKKYATNPLHVEIIKNYIKPFVYDRVCIDFFELEHHHHHH” here?
Answer: Its value is “not soluble”.
